PMC12060307
pKd: −log10 of the molar value.

Tests used:
[1] = biological target: Japanese soil-borne wheat mosaic virus movement protein (MP^JSBWMV), as fusions MP^JSBWMV:RFP and MP^JSBWMV:GFP (Japanese soil-borne wheat mosaic virus); test: FRET or BRET; FRET-FLIM (two-photon, time-correlated single-photon counting) in agro-inoculated N. benthamiana epidermal cells, at plasmodesmata; donor MP:GFP, acceptor RFP fusion; FRET efficiency above 5% considered as interaction
[2] = system: MPJSBWMV:GFP (movement protein, GFP fusion, in leaf extract) (Japanese soil-borne wheat mosaic virus); test: MST; settings: MST in leaf extract: extraction in 2x MST buffer (100 mM Tris-HCl pH 7.5, 300 mM NaCl, 10 mM MgCl2, 0.1% Tween-20, 0.1 mg/mL BSA, 10 mM DTT, protease …)

Substance	% FRET [1] [%]	fluorescence lifetime of the donor MP:GFP [1] [ns]	pKd [2]
Japanese soil-borne wheat mosaic virus movement protein (MP^JSBWMV), as fusions MP^JSBWMV:RFP and MP^JSBWMV:GFP (natural protein)	19.1	2	
RNA1JSBWMV			7.81
RNA2JSBWMV			8.35
tRNA1JSBWMV (tRNA-like structure of RNA1)			7.79
tRNA2JSBWMV (tRNA-like structure of RNA2)			7.55
